Results reported in the supplement of paper PMC10567573.

B1: TRIM55 (parent)
chain: YKSFSKEQQTMDNLEKQLICPICL
B2: SAT2 (parent)
chain: GYGIYYFIYSTWKGRTIYLEDIYV

Variants of: B1
Assay: protein stability index of a GFP-peptide fusion (GPS, HEK-293T) (PSI 1-6); higher = more stable
Conditions: c terminus: a fixed tail appended
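Further: lentivirally expressed fusions sorted by FACS into six bins by GFP to DsRed ratio, PSI derived from sequencing read proportions per bin multiplied by bin number.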

Variant | protein stability index
YKSSSKEQQTMDNLEKQLICPICL | 2.64
YKSFSKEQQTMDNLEKQLICNICL | 1.24
YKSFSKEQQTMDNLEKQLICKICL | 2.07
YKSFSKEQQTMDNLEKQLICYICL | 3.21
YKSFSKEQQTMDNLEKQLICRICL | 1.35
YKSFHKEQQTMDNLEKQLICPICL | 1.81
YKSFTKEQQTMDNLEKQLICPICL | 1.92
YKSFEKEQQTMDNLEKQLICPICL | 2.26
YKSFGKEQQTMDNLEKQLICPICL | 2.13
YKSFDKEQQTMDNLEKQLICPICL | 2.18
YKSFLKEQQTMDNLEKQLICPICL | 1.34
YKSFMKEQQTMDNLEKQLICPICL | 2.11
YKSFRKEQQTMDNLEKQLICPICL | 2.11
YKSFPKEQQTMDNLEKQLICPICL | 2.07
YKSFNKEQQTMDNLEKQLICPICL | 2.4
YKSFSKEQQTMQNLEKQLICPICL | 2.1
YKSFSKEQQTMINLEKQLICPICL | 1.93
YKSFSKEQQTMVNLEKQLICPICL | 1.89
YKSFSKEQQTMHNLEKQLICPICL | 1.93
YKSFSKEQQTMGNLEKQLICPICL | 2.56

Variant | protein stability index
YKSFSKEQQTMDNLEKQLICPIWL | 1.65
YKSFSKEQQTMDNLEKQLICPIDL | 3.64
YKSFSKEQQTMDNLEKQLICPIGL | 2.67
YKSFSKEQQTMDNLEKQLICPIVL | 1.7
YKSFSKEQQTMDNLEKQLICPITL | 2
YKSFSKEQQTMDKLEKQLICPICL | 2.09
YKSFSKEQQTMDRLEKQLICPICL | 1.79
YKSFSKEQQTMDSLEKQLICPICL | 1.91
YKSFSKEQQTMDNLEKQLICPICP | 3.03
YKSFSKEQQTMDNLEKQLICPICK | 2.63
YKSFSKEQQTMDNLEKQLICPICS | 2.13
YKSFSKEQQTMDNLEKQLICPICH | 2.5
YKSFSKEQQTMDNLEKQLICPICG | 2.46
YKSFSKEQQTMDNLEKQLICPICI | 2.7
YKSFSKEQQTMDNLEKQLICPICF | 2.15
YKSFSKEQQTMDNLEKQLICPICM | 2.33
YKSFSKEQQTMDNLEKQLICPICR | 2.31
YKSFSKEQQTMDNLEKQLICPECL | 2.93
YKSFSKEQQTMDNLEKQLICPMCL | 2.31
YKSFSKEQQTMDNLEKQLICPKCL | 2.9

Variant | protein stability index
YKSFSKEQQTMDNLEKQLICPQCL | 2.03
YKSFSKEQQTMDNLEKQLICPHCL | 2.15
YKSFSKEQQTMDNLEKQLICPYCL | 2.55
YKSFSKEQQTMDNLEKQLICPACL | 2.23
YKSFSKEQQTMDNLEKQLICPSCL | 2.75
YKSFSKEQQTMDNLKKQLICPICL | 2.09
YKSFSKEQQTMDNLPKQLICPICL | 2.51
YKSFSKEQQTMDNLVKQLICPICL | 1.27
YKSFSKEQQTMDNLDKQLICPICL | 2.13
YKSFSKEQQTMDNLHKQLICPICL | 2.27
YKSFSKEQQTMDNLQKQLICPICL | 2.58
YKSFSKEQQTEDNLEKQLICPICL | 2.69
YKSFSKEQQTWDNLEKQLICPICL | 1.55
YKSFSKEQQTADNLEKQLICPICL | 2.74
YKSFSKEQQTGDNLEKQLICPICL | 2.22
YKSFSKEQQTKDNLEKQLICPICL | 2.54
YKSFSKEQQTLDNLEKQLICPICL | 2.3
YKSFSKEQQTQDNLEKQLICPICL | 2.69
YKSFSKEQQTFDNLEKQLICPICL | 2.24
YKSFSKEQQTSDNLEKQLICPICL | 2.29

Variants of: B2
Assay: as above
Conditions: c terminus: a fixed tail appended

Variant | protein stability index
GYGIYYFIYSTWKGRTIYLEMIYV | 3.04
GYGIYYFIYSTWKGRTIYLENIYV | 2.74
GYGIYYFIYSTWKGRTIYLEKIYV | 4.17
GYGIYYFIYSTWKGRTIYLELIYV | 2.9
GYGIYYFIYSTWKGRTIYLETIYV | 1.75
GYGIYYFIYSTWKGRTIYLERIYV | 1.47
GYGIYYFIYSTWKGRTIYLEPIYV | 2.44
GYGIYYFIYSTWKGRTIYLEDICV | 2.65
GYGIYYFIYSTWKGRTIYLEDIPV | 2.43
GYGIYYFIYSTWKGRTIYLEDIMV | 2.71
GYGIYYFIYSTWKGRTIYLEDIFV | 2.37
GYGIYYFIYSTWKGRTIYLEDIAV | 2.89
GYGIYYFIYSTWKGRTIYLEDIHV | 3.07
GYGIYYFIYSTWKGRTIYLEDILV | 1.08
GYGIYYFIYSTWKGRTIYLEDINV | 3.18
GYGIYYFIYSTWKGRTIYLEDIWV | 2.35
GYGIYYFIYSTWKGRTIYLEDEYV | 2.92

Variant | protein stability index
GYGIYYFIYSTWKGRTIYLEDCYV | 2.41
GYGIYYFIYSTWKGRTIYLEDHYV | 2.55
GYGIYYFIYSTWKGRTIYLEDQYV | 1.86
GYGIYYFIYSTWKGRTIYLEDYYV | 2.09
GYGIYYFIYSTWKGRTIYLEDSYV | 3.3
GYGIYYFIYSTWKGRTIYLEDIYA | 2.62
GYGIYYFIYSTWKGRTIYLEDIYG | 2.6
GYGIYYFIYSTWKGRTIYLEDIYM | 1.63
GYGIYYFIYSTWKGRTIYLEDIYK | 3.94
GYGIYYFIYSTWKGRTIYLEDIYY | 2.53
GYGIYYFIYSTWKGRTIYLEDIYP | 2.3
GYGIYYFIYSTWKGRTIYLEDIYE | 2.6
GYGIYYFIYSTWKGRTIYLEDIYR | 2.39
GYGIYYFIYSTWKGRTIYLEDIYF | 2.91
GYGIYYFIYSTWKGRTIYLEDIYS | 2.83
GYGIYYFIYSTWKGRTIYLEDIYI | 1.48
GYGIYYFIYSTWKGRTIYLEDIYC | 3.63
